Reference: paper PMC11671767, “GENOMES UNCOUPLED PROTEIN1 binds to plastid RNAs and promotes their maturation”

Tests used:
GUN1-PS [1] = biological target: T1, GUN1-PS (Arabidopsis thaliana, UniProt Q9SIC9 232-918); assay: competition; vs Cy5-23S_104856, 5-50x; reduces the weak shift; 5x buffer (4 ul per reaction): 50 mM Tris-HCl pH 7.5, 50 mM NaCl, 200 mM KCl, 5 mM MgCl2, 5 mM EDTA, 5 mM DTT, 0.25 mg/ml BSA, 5% glycerol; 30 min at 23 C; 5% native PAGE, 0.5x TBE, 4 C; conditions: protein: recombinant; tags: N-terminal TRX-His
T1 sequence: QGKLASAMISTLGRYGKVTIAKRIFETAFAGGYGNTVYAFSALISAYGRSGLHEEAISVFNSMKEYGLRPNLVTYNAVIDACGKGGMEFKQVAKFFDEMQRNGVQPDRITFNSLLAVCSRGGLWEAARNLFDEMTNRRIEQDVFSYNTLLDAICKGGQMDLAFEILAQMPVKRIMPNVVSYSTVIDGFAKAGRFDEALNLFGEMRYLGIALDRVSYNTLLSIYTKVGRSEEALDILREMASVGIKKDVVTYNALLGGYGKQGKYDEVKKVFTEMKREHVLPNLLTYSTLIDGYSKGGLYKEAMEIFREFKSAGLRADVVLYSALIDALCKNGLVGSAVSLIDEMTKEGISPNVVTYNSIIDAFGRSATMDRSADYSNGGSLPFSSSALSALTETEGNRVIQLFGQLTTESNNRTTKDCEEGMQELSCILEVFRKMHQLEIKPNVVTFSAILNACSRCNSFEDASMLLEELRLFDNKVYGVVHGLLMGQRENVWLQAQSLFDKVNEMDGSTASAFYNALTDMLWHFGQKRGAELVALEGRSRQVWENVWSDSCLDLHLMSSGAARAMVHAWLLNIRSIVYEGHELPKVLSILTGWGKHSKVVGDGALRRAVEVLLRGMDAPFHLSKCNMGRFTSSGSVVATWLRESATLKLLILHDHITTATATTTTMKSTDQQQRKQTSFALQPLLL

GUN1-PS [2] = biological target: T1, GUN1-PS; assay: competition; vs Cy5-trnG.1, 5-50x; 5x buffer (4 ul per reaction): 50 mM Tris-HCl pH 7.5, 50 mM NaCl, 200 mM KCl, 5 mM MgCl2, 5 mM EDTA, 5 mM DTT, 0.25 mg/ml BSA, 5% glycerol; 30 min at 23 C; 5% native PAGE, 0.5x TBE, 4 C; conditions: protein: recombinant; tags: N-terminal TRX-His
GUN1-PS [3] = biological target: T1, GUN1-PS; assay: EMSA; binding at 37 C, gel at room temperature; no clear shift; 5x buffer (4 ul per reaction): 50 mM Tris-HCl pH 7.5, 50 mM NaCl, 200 mM KCl, 5 mM MgCl2, 5 mM EDTA, 5 mM DTT, 0.25 mg/ml BSA, 5% glycerol; 30 min at 23 C; 5% native PAGE, 0.5x TBE, 4 C; conditions: protein: recombinant; tags: N-terminal TRX-His
GUN1-PS [4] = biological target: T1, GUN1-PS; assay: EMSA; binding at 37 C, gel at room temperature; similar to RNA1; 5x buffer (4 ul per reaction): 50 mM Tris-HCl pH 7.5, 50 mM NaCl, 200 mM KCl, 5 mM MgCl2, 5 mM EDTA, 5 mM DTT, 0.25 mg/ml BSA, 5% glycerol; 30 min at 23 C; 5% native PAGE, 0.5x TBE, 4 C; conditions: protein: recombinant; tags: N-terminal TRX-His
GUN1-PS [5] = biological target: T1, GUN1-PS; assay: competition; vs Cy5-ndhG, 5-50x; 5x buffer (4 ul per reaction): 50 mM Tris-HCl pH 7.5, 50 mM NaCl, 200 mM KCl, 5 mM MgCl2, 5 mM EDTA, 5 mM DTT, 0.25 mg/ml BSA, 5% glycerol; 30 min at 23 C; 5% native PAGE, 0.5x TBE, 4 C; conditions: protein: recombinant; tags: N-terminal TRX-His; hairpin loop (predicted)
GUN1-PS [6] = biological target: T1, GUN1-PS; assay: EMSA; 100-600 nM protein; 5x buffer (4 ul per reaction): 50 mM Tris-HCl pH 7.5, 50 mM NaCl, 200 mM KCl, 5 mM MgCl2, 5 mM EDTA, 5 mM DTT, 0.25 mg/ml BSA, 5% glycerol; 30 min at 23 C; 5% native PAGE, 0.5x TBE, 4 C; conditions: protein: recombinant, tags: N-terminal TRX-His

B1: nonspecific competitor for 23S and ndhG (ssRNA)
RNA: AUUCUUAUGUGGCAGUCUCUAGUCCACUAGCUUUUG
binding result (GUN1-PS [1]): binds

B2: nonspecific competitor for trnG.1 (ssRNA)
RNA: GCAUCUGAAUUUCAUAACCAAUCUCGAU
binding result (GUN1-PS [2]): no binding

B3: Kim_RNA1 (BLRP) (ssRNA)
RNA: GGAAAUCCGUCGAUAUCUCU
binding result (GUN1-PS [3]): no binding

B4: Kim_RNA3 (BLRP mut) (ssRNA)
RNA: GGACCGAAUGAUCUAUCUCU
binding result (GUN1-PS [4]): no binding

B5: trnG.1 unlabeled (ssRNA)
RNA: AUUUGGGAAUUUCUCCAUCCAUCAU
binding result (GUN1-PS [2]): binds

B6: ndhG_118454 unlabeled (ssRNA)
RNA: AGAAAAAAAUCUGUUGAUAAAUGAA
binding result (GUN1-PS [5]): binds

B7: ndhG_118454 (ssRNA)
RNA: AGAAAAAAAUCUGUUGAUAAAUGAA
binding result (GUN1-PS [6]; hairpin loop (predicted)): binds

B8: trnG.1 (ssRNA)
RNA: AUUUGGGAAUUUCUCCAUCCAUCAU
binding result (GUN1-PS [6]): binds
